Test results taken from PMC4657330, “Rac1 augments Wnt signaling by stimulating β-catenin–lymphoid enhancer factor-1 complex assembly independent of β-catenin nuclear import” (Journal of Cell Science, 2015).
Changes are numbered by the printed parent chain. Numbers in names are those of the source. Blank lines part the entries; values can stand above or below the binder they belong to.

Target: T1, HA-tagged LEF-1 (UniProt Q9UJU2 1-399)
T1 construct: LEF-1 (lymphoid enhancer factor 1); written both HA-LEF-1 and LEF-1-HA; also called pHA-LEF-1; HA-LEF-1; source: HEK293, transfected, in lysate; NIH 3T3, transfected, in lysate and in fixed cells
Test: co-IP; NIH 3T3 lysates, pLEF-1-HA co-transfected with pβ-catenin-myc constructs; IP with HA mAb or isotype control IgG, blot with anti-myc; densitometry over three independent experiments
Settings: partners not purified

T1 sequence (Q9UJU2 whole entry): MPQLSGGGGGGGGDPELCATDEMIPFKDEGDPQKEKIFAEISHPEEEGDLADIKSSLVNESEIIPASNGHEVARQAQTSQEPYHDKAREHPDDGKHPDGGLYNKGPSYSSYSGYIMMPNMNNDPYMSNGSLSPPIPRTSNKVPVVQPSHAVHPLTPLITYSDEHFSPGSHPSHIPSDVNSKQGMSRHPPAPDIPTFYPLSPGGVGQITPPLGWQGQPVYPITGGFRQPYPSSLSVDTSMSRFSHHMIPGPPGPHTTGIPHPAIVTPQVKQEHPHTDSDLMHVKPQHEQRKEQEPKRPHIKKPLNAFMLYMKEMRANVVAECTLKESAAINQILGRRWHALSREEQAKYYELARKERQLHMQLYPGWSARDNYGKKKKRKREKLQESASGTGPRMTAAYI

- reduction in binding relative to β-catenin-WT (densitometry of the co-IP): ~20%
B1: myc-tagged β-catenin S191A (natural protein, UniProt P35222 1-781, looked up)
chain: MATQADLMELDMAMEPDRKAAVSHWQQQSYLDSGIHSGATTTAPSLSGKGNPEEEDVDTSQVLYEWEQGFSQSFTQEQVADIDGQYAMTRAQRVRAAMFPETLDEGMQIPSTQFDAAHPTNVQRLAEPSQMLKHAVVNLINYQDDAELATRAIPELTKLLNDEDQVVVNKAAVMVHQLSKKEASRHAIMRAPQMVSAIVRTMQNTNDVETARCTAGTLHNLSHHREGLLAIFKSGGIPALVKMLGSPVDSVLFYAITTLHNLLLHQEGAKMAVRLAGGLQKMVALLNKTNVKFLAITTDCLQILAYGNQESKLIILASGGPQALVNIMRTYTYEKLLWTTSRVLKVLSVCSSNKPAIVEAGGMQALGLHLTDPSQRLVQNCLWTLRNLSDAATKQEGMEGLLGTLVQLLGSDDINVVTCAAGILSNLTCNNYKNKMMVCQVGGIEALVRTVLRAGDREDITEPAICALRHLTSRHQEAEMAQNAVRLHYGLPVVVKLLHPPSHWPLIKATVGLIRNLALCPANHAPLREQGAIPRLVQLLVRAHQDTQRRTSMGGTQQQFVEGVRMEEIVEGCTGALHILARDVHNRIVIRGLNTIPLFVQLLYSPIENIQRVAAGVLCELAQDKEAAEAIEAEGATAPLTELLHSRNEGVATYAAAVLFRMSEDKPQDYKKRLSVELTSSLFRTEPMAWNETADLGLDIGAQGEPLGYRQDDPSYRSFHSGGYGQDALGMDPMMEHEMGGHHPGADYPVDGLPDLGHAQDLMDGLPPGDSNQLAWFDTDL
notes: from the Long laboratory (Wu et al., 2008); also called pmyc-β-catenin-S191A; source: NIH 3T3, transfected, in lysate and in fixed cells

- reduction in binding relative to β-catenin-WT (densitometry of the co-IP): ~50%
B2: myc-tagged β-catenin S605A (natural protein, UniProt P35222 1-781, looked up)
chain: B1 chain with A191S, S605A
notes: from the Long laboratory (Wu et al., 2008); also called pmyc-β-catenin-S605A; source: NIH 3T3, transfected, in lysate and in fixed cells
